The text below walks through data of patent US20190309044A1, “POLYPEPTIDES AND USES THEREOF AS A DRUG FOR TREATMENT OF AUTOIMMUNE DISORDERS” (Compugen Ltd., priority 2017, published 2019).

Format in all cases: in vivo, mouse
The subject of experiment [1] is SJL/J mice. As to the kind of experiment: BBB breakdown and inflammation by fluorescence molecular tomography, adoptive transfer R-EAE. The following applies: Day +30. The method, then:
Commercially available near infrared (NIR) imaging agents were used to perform tomographic imaging (PerkinElmer Inc., Boston, Mass.). AngioSense®750 was used as a vascular imaging agent, and Cat B® 680 FAST was used to detect regions of increased lysosomal cathepsin B activity. For the in vivo imaging, mice were injected intravenously with 4 nmol of NIR fluorescent agent 24 hrs prior to imaging, and imaged following the last treatment with Control Ig or C1ORF32 ECD-Fc (SEQ ID NO: 42) (Day +30 post-PLP139-151 blast cell transfer). At the time of imaging, mice were anesthetized by administration of sodium pentobarbital (50 mg/kg) and then imaged using the FMT 2500 fluorescence molecular tomography in vivo imaging system (PerkinElmer Inc., Boston, Mass.). […] Appropriate optical filters allowed the collection of both fluorescence and excitation datasets, and the multiple source-detector fluorescence projections were normalized to the paired collection of laser excitation data. […] The collected fluorescence data was reconstructed by FMT 2500 system software (TrueQuant, PerkinElmer Inc., Boston, Mass.) which compensates for the effects of tissue heterogeneity on light scattering, allowing for the quantification of fluorescence signal within multiple organ regions. […] All data was normalized to fluorescence detected in CFA/saline-immunized healthy control mice. […]

Experiment [2] concerns total splenocytes and lymph node cells. As to the kind of experiment: Ex vivo recall responses, adoptive transfer R-EAE. The following applies: day 45; treatment from onset of remission. Here is the method:
On day 45 (unless otherwise indicated) following cell transfer, spleen and cervical lymph nodes or CNS from 3 representative mice of each group were collected, and the total cells were activated ex vivo at 0.5×10^6 cells per well with either OVA323-339, PLP139-151, PLP178-191, MBP84-104 (20 ug/ml), or anti-CD3 (1 ug/ml). Two sets of cultures were set up side-by-side. One set was pulsed with 1uCi of tritiated thymidine at 24 hours and harvested at 72 hours to determine cell proliferation. In the second set of cultures, supernatants were collected at 72 hours and tested for peptide-specific cytokine production as determined by LiquiChip.

Experiment [3] concerns SJL/J mice. As to the kind of experiment: T cell and Treg counts in spleen and CNS by FACS, R-EAE with IL-10 or TGFb blockade. The following applies: day 44. The text has this:
On day 44 post disease induction, the rest of the mice were sacrificed and spleens and CNS were taken for cell counts and cell population analysis as described below.
4. Experimental stains (CD45, CD3, CD4, CD25, FoxP3, Nrp-1, and Helios)
9. Gating scheme for flow: Singlets (FSC-A vs. FSC-H)->Cells (SSC-A vs. FSC-A)->Live (VID stain negative cells)->CD45hi->CD3/CD4+->CD25/FoxP3+->Helios/Nrp-1

B1: C1ORF32 ECD-Fc (SEQ ID NO:42): human-mouse fusion protein: human C1ORF32 ECD fused to mouse immunoglobulin Fc (SEQ ID NO:42) (protein)
chain: LQVTVPDKKKVAMLFQPTVLRCHFSTSSHQPAVVQWKFKSYCQDRMGESLGMSSTRAQSLSKRNLEWDPYLDCLDSRRTVRVVASKQGSTVTLGDFYRGREITIVHDADLQIGKLMWGDSGLYYCIITTPDDLEGKNEDSVELLVLGRTGLLADLLPSFAVEIMGSENLYFQGSGEPRGPTIKPCPPCKCPAPNLLGGPSVFIFPPKIKDVLMISLSPIVTCVVVDVSEDDPDVQISWFVNNVEVHTAQTQTHREDYNSTLRVVSALPIQHQDWMSGKEFKCKVNNKDLPAPIERTISKPKGSVRAPQVYVLPPPEEEMTKKQVTLTCMVTDFMPEDIYVEWTNNGKTELNYKNTEPVLDSDGSYFMYSKLRVEKKNWVERNSYSCSVVHEGLHNHHTTKSFSRTPGK
modifications: Fusion protein human C1ORF32-ECD fused to mouse IgG2a Fc
B1: in the experiment with SJL/J mice [1] (did not reach statistical significance), the “monocyte/macrophage activity in the brain and spinal cord (lysosomal CathepsinB activity)” value is “decreased monocyte/macrophage activity”. Further, the “vascular leakage in the brain and spinal cord (AngioSense)” value in the experiment on SJL/J mice [1] (significantly reduced levels) is on record as “decreased vascular leakage”. In addition, the “recall responses, cellular proliferation of splenocytes and lymph node cells” value in experiment [2] is reported as “decreased level of cellular proliferation”. Moreover, the “leukocytes and T cell counts in the CNS (CD45+, CD4+, CD25+/FoxP3+)” value in the experiment with SJL/J mice [3] is listed as “pronounced decrease”.
